Data from patent US20250129160A1.

What was measured:
[1] = target: cynomolgus monkey CCR8 (Chinese origin) (cynomolgus monkey); assay: flow cytometry on Cy CCR8+ CHO
[2] = target: cynomolgus monkey CCR8 (T4R), Mauritian origin (cynomolgus monkey); assay: flow cytometry on Cy CCR8 (T4R)+ CHO
[3] = target: CCR8 P_1-12 peptide construct (human); assay: flow cytometry, peptide construct on streptavidin beads
[4] = target: CCR8 P_1-35 peptide construct (full-length N-terminal peptide of human CCR8) (human); assay: as above
[5] = target: CCR8 P_13-24 peptide construct (human); assay: as above
[6] = target: CCR8 P_19-30 peptide construct (human); assay: as above
[7] = target: T1, CCR8 P_25-35 peptide construct (human); assay: as above
T1 sequence (chain, BAP biotinylated in vivo): CDAELIQTNGK

[8] = target: CCR8 P_7-18 peptide construct (human); assay: as above
[9] = target: human CCR8 (human) (UniProt P51685); assay: flow cytometry on hu CCR8+ CHO
[10] = target: human CCR8 (human) (UniProt P51685); assay: flow cytometry on HUT-78 (CCR8+/CD3+)
[11] = target: human CCR8 (human) (UniProt P51685); assay: flow cytometry on HUT-78 (CCR8+/CD3-)
[12] = target: human CD3 (human) (UniProt P07766); assay: flow cytometry on HPB-all
Chain of human CD3 (human) (P07766 23-207): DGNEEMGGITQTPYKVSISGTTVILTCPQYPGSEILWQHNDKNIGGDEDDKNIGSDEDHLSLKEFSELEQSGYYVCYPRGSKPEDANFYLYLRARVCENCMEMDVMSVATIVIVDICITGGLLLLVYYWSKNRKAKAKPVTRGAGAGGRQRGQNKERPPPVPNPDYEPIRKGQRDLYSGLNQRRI

[13] = target: cynomolgus CD3 (cynomolgus) (UniProt Q95LI5); assay: flow cytometry on LnPx4119
Chain of cynomolgus CD3 (cynomolgus) (Q95LI5 22-198): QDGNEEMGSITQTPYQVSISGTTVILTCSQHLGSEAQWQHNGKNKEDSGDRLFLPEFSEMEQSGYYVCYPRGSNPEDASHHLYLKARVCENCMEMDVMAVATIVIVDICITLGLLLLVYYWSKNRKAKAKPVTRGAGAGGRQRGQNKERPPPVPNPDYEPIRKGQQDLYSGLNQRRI

[14] = target: human CD3 (human) (UniProt P07766); assay: flow cytometry on HUT-78 (CCR8+/CD3+)

Chain of anti-CCR8 antibody clone 433H (BD 747578) (VH): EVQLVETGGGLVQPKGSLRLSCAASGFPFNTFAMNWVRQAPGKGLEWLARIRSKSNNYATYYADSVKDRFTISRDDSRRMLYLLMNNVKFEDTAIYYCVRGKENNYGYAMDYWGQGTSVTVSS
Chain of anti-CCR8 antibody clone 433H (BD 747578) (VL): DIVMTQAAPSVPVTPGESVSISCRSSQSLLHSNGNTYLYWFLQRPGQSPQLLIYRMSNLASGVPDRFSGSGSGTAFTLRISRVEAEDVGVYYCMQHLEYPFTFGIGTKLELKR
Chain of cynomolgus monkey CCR8 (T4R), Mauritian origin (cynomolgus monkey) (O97665 other isoform, or with tags, fused parts or gaps): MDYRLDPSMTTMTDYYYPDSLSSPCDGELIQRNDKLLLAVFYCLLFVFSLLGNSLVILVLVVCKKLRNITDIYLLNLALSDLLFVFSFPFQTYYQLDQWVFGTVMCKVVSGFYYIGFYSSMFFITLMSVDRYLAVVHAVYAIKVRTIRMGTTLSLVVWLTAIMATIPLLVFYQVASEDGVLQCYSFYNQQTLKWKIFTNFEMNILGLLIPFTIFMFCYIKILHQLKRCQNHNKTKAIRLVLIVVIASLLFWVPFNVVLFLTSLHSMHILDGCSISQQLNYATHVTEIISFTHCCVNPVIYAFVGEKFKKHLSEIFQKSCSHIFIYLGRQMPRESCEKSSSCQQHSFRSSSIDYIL
Chain of cynomolgus monkey CCR8 (Chinese origin) (cynomolgus monkey) (O97665 other isoform, or with tags, fused parts or gaps): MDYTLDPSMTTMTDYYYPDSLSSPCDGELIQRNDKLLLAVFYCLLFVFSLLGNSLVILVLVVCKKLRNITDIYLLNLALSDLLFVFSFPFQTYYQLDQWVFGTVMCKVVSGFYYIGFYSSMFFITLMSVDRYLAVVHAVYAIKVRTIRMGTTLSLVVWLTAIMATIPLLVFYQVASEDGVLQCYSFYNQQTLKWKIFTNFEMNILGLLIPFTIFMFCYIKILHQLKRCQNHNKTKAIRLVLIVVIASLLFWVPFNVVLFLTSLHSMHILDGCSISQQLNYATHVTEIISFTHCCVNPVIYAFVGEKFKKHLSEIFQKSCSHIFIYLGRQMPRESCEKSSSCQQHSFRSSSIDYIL

Substance | mean BL2 of the sample/mean BL2 of the secondary antibody control [1] | mean BL2 of the sample/mean BL2 of the secondary antibody control [2] | Median Fluorescence of Sample/Median Fluorescence of Negative Control [3] | Median Fluorescence of Sample/Median Fluorescence of Negative Control [4] | Median Fluorescence of Sample/Median Fluorescence of Negative Control [5] | Median Fluorescence of Sample/Median Fluorescence of Negative Control [6] | Median Fluorescence of Sample/Median Fluorescence of Negative Control [7] | Median Fluorescence of Sample/Median Fluorescence of Negative Control [8] | mean BL2 of the sample/mean BL2 of the secondary antibody control [9] | mean BL2 of the sample/mean BL2 of the secondary antibody control [10] | mean BL2 of the sample/mean BL2 of the secondary antibody control [11] | mean BL2 of the sample/mean BL2 of the secondary antibody control [12] | mean BL2 of the sample/mean BL2 of the secondary antibody control [13] | mean BL2 of the sample/mean BL2 of the secondary antibody control [14]
anti-CCR8 antibody clone 433H (BD 747578) | 136 | 106 | 0.9 | 290 | 300 | 0.9 | 0.9 | 0.9 |  |  |  |  |  | 
anti-CCR8 antibody clone L263G8 (BioLegend, 360602) |  |  | 0.9 | 751 | 285 | 0.9 | 0.9 | 0.9 | 40 | 9 | 6 |  |  | 
anti-FLAG antibody (clone M2, Sigma F3165/F1804) |  |  | 596 | 522 | 628 | 590 | 582 | 589 |  |  |  |  |  | 

The next lines start with the values.

mean BL2 of the sample/mean BL2 of the secondary antibody control [1] | mean BL2 of the sample/mean BL2 of the secondary antibody control [2] | Median Fluorescence of Sample/Median Fluorescence of Negative Control [3] | Median Fluorescence of Sample/Median Fluorescence of Negative Control [4] | Median Fluorescence of Sample/Median Fluorescence of Negative Control [5] | Median Fluorescence of Sample/Median Fluorescence of Negative Control [6] | Median Fluorescence of Sample/Median Fluorescence of Negative Control [7] | Median Fluorescence of Sample/Median Fluorescence of Negative Control [8] | mean BL2 of the sample/mean BL2 of the secondary antibody control [9] | mean BL2 of the sample/mean BL2 of the secondary antibody control [10] | mean BL2 of the sample/mean BL2 of the secondary antibody control [11] | mean BL2 of the sample/mean BL2 of the secondary antibody control [12] | mean BL2 of the sample/mean BL2 of the secondary antibody control [13] | mean BL2 of the sample/mean BL2 of the secondary antibody control [14] | Substance
 |  | 1090 | 953 | 1300 | 1020 | 1090 | 1090 |  |  |  |  |  |  | anti-V5 antibody (clone SV5-Pk1; AbD Serotec, MCA 1360)
 |  |  |  |  |  |  |  |  |  |  | 398 | 75 | 72 | control TCE molecule (CD3-based TCE molecule recognizing an irrelevant target antigen) (bispecific antibody)
